In a protein production outcome set (Wang et al. 2014):

Assay: label from the status in PepcDB records

Sequence	protein production
MPIKKNSHVKTTEMNKYPVLQLKRDPEAIHHYLNGEIRILVPTEYQRIKNEISQKRHRTLFDVLMITGMRYVEVQRLWDHKEWYLKKKNIIHLPEEAQKKHKRTQQERTIHPLPGMFELLLDDFFEARKPPAESNWNRDLRKWAKDAGLNPYGLSAKTTRKTLESWCIAAGMLESTVCLRQGHDNLTSMKHYQGLAFSADELKDIEKQLTVWGMLK	failed
MPIKVKYYGNVVFASDAVCGQAENYATLKAMKEVGNYTISIQTFENAENVYPEEFLAKPVADEHYLTTEDGSVGIKGHYLDIVKELIEKDKVDIIFAGGKLGSLAKLAELTRPYGIPTLEHHHHHH	failed
MPIPKSAKSDYTKEQKDLVGNICQCKDFYKILNVDKKASPDEIRIAFRKRIREVHPDKCKHPSATEASKVVNNAFSLLMDPAKRRQYDLQ	not failed
MPIPLEKQNKERRQKILTCSLDLFIEKGYYNTSIRDIIALSEVGTGTFYNYFVDKEDILKNLLEDFAKQIISSISEYYLVEKDLYERFIETKRLTMEVFAQNETLSEIYSRVAGSSAPIDQCLKQFEDRLLEFYSRNIEYGIKKGVFKNVPVSPIAHSILAIEKFSLYKWVVLKAITKEEMIEMVLSFHKTLAVGLLVVND	not failed
MPIVVFHKGDETFTDEVKDNTNLVVRAGIKQFPYPNLRYQCGMGKCATCACRILAGGEHLPEPNWKEKKQLGDRLAQGYRLACQLWITHDIELRQDAAAPAGGGD	failed
MPKASDIKKGSAIEHNGKVFFVKEISKLTPSGRAGATLFRMRMYDVATGAKSDESFKADDMINLADFSRRSATFSYVDGNEYVFMDSEDYTPYNFNKEAIEEELLFITEETQGLQILIVDGAPVAIELPSAVDLEIVETAPSIKGASASARTKPATMTTGLTVQVPEYIANGEKVKINTTEHKFMSRALEHHHHHH	failed
MPKEQPLYLQIVDDLEVKIKKSMTENDKLLSERELSDLYGVSRITIRLTLKELELRDLIYKKQGKGTYVSGIKEPATDLSSTYSFTEQMKKMGKTPKTEILSFEQYQVTPYLSGLLELDPDTEVFELERLRIADDMPLMFERSYIPAQPFQGLSIADLKRKALYDIFAKDYQETIRLAEEEFYASIALDYEAGLLGIKKGDPVLHIIRKTYNDKNILIELTFSIARADQFRYRVQHHPNG	failed
MPKIAKELSALEVKRLTCRIDPETGEATEVRYPVGGVSGLLLRITPSGSRQWILRAKVGNRRPDMGLGPYPEISLAQARDKAREMKEKIRSGIDPLEEKRTLKRALLAEQISTLTFQKAMEKYIKMKAKEFRNPRQEKQWTNSLNTYAIPHLGKLPVREIDLPHIKQVLDPIWETKTETANRVRARIENILGWCAIHGYRSAENPARWQGYLDEVYPSPEKIKKRGHFAALPVDDMPEFMRDLKKRTGTAARALEFLILTASRTNEVIGDKRIGKAGVTWQEIDLARKVWTVPADRMKSEKIHRVPLTDSAIELLKGMGEGSPEDLIFPGPKGGIPSNNFLTALLKRMERPITAHGFRSTFKDWARERTAYADEVSELALAHVNSDATRAAYARSELIDKRRLMMADWEQFCMHGETKKESGKVVAIGEGKG	failed
MPKIIEAIYENGVFKPLQKVDLKEGERIKLRIEEGILDVIKKYQGKFKLTEKDIEKFLEERRLEHHHHHH	not failed
MPKKGSDPVWCVVMFDLPVKTKTQRKQATAFRQNLLDLGFCMAQLSVYVQYLPLAAKLSNLVKLIKEKLPPGGDVRILSVSDIQWSKMIRFSSSAEVSGEEKPDQLAIFLEHHHHHH	not failed
MPKKRENRGRRKGDKGHVGYISCDQCGARVPEDKAVCVTKMYSPVDASLASELEKKGAIIARYPVTKCYCVNCAVFLGIIKIRAENERKQKARLRLEHHHHHH	failed
MPKLDLDSIERRIGSVYPGRLNAAMDGRSSLRLGDAGGLSQFGVNLVRLEPGAKSSLRHYHMEQDEFVMVTEGALVLVDDQGEHPMVPGDCAAFPAGDPNGHQFVNRTDAPATFLVVGTRTPTETAYYSDMDMMVKQDASGFAFTRKDGSPLTADQIGDDNE	not failed
MPKLDRYLLSDFTQSFLATLIVLLVVSVGGVLVDILGNIADGRIPARLLLSQVGLQFVAYLPIILPLALMLGLLLALARLYRDSEMAVITAIGVGPTRMLRPLLMLVVPVVVVIGLCSLWLGPWASRTAEAMLEDANRSVLMAGLESGQFTPLSDGGVVYMQTISADGKGLGKIFLQRQQNDRIDVVTADRGALFFEGKTDRYLHLDDGYRTEGPAGGATLDYRLMKFASSDIALPDRTRLHDANDPEVMWTTQLLSDERPAARAQLHERLAPPLLALAFAMLTLPLSRSAPRQQRYGRIMLAFLAYMVGTNLMIVGTQWIANGKAPAALGLWWLTLPLLAVAVWAYARDGRVRRPRARA	failed
MPKPGILKSKSMFCVIYRSSKRDQTYLYVEKKDDFSRVPEELMKGFGQPQLAMILPLDGRKKLVNADIEKVKQALTEQGYYLQLPPPPEDLLKQHLSVMGQKTDDTNK	not failed
MPKSVRAENISRILKRIMKSPVSRVELAEELGLTKTTVGEIAKIFLEKGIVVEEKDSPKGVGRPTKSLKISPNCAYVLGIEVTRDEIAACLIDASMNILAHEAHPLPSQSDREETLNVMYRIIDRAKDMMEKLGSKLSALTVAAPGPIDTERGIIIDPRNFPLSQIPLANLLKEKYGIEVWVENDADMGAVGEKWYTKRDDSFAWILTGKGIGAGIIIDGELYRGENGYAGEIGYTRVFNGNEYVFLEDVCNENVVLKHVLSMGFSSLAEARDSGDVRVKEYFDDIARYFSIGLLNLIHLFGISKIVIGGFFKELGENFLKKIKIEVETHLLYKHSVDMSFSKVQEPVIAFGAAVHALENYLERVTTS	not failed
MPKTSHPFQLSLLALAVSAVLVSGCNSSDNDDDLATEAQVTGLTLEFAGRYSTGQFDESAAEITAFDPASRRAFVVNALSGAVDVLDMSDPVNPAKIDTLTVADIAADAVVNSVAVANGLVAVAVESNPKTDPGYVAVFGAADLQLRDSIQVGAQPDMVTFTPDGQYVLAANEGEPSDDYQVDPEGSISVVDVSNPASLTVRIADFLAFNSQESDLKASGVRIYGPGATVAQDLEPEYITVSADSRAAWVSLQENNALAKLDIDTATVTGILPLGFKDYGVEGQGIDASDDDGVINIQRWPGVVGIYHPDAIDSYQANGETFIVTANEGDARAWGEDDADYWNGDSSRGFVEELRVKHLVHPDGFARRIGDDMPSQLTALAEGALLNPSVFDYCGATAGAANACRDDDQLGRLNISWVQGYRVDENGAPVMFNASGAEDPDGTLLMYDQLYSYGTRSLAIWNEDGELVWDSGDAIEQFLASEDCRLGTARSIPCSDHFNSAHDEGMAFDSRSDAKGPEPEAVTVATFGNKTFAFLGLERMGGILVYDVTDPASPVQVDYLNTRDDWTTVDTASVLETAGDLGVESITVVAADDSPTGEPLLITGNEVSGTTAIYRVKLELTD	failed
MPKVYNSIVVDAPVERVWSRIRNFHDFSWAPSLIKSCKKVGGGGGYSVGARRLLNGEFLDTLIAYSEIERRIMYSMDEGPSPVSSGEIYNYVGNLHLLPVTIDDTTFVEWSGSWESASTEAVEYMNTVYRSLLADLAAEFTSESRRSEWIDQLEHHHHHH	not failed
MPLASGQVFAGFTIVRLVGTGGMGEVYLAKHPRLPREDALKVLPISVSADDEFRQRFIREADMAATLWHPHIVGVHDRGEFEGRLWISMDYVDGHDAARLLHDKYPKGMPADDVVEIVTAVGDALDYAHQRQLLHRDVKPANILVTEKHGTKRRIMLTDFGIARRTDDVNGLTSTNITVGSMSYTSPEQLMGQPLDGRADQYSLAATAYRLLTGAPPFSHSNPAVVISHHLNSPPPKLGDTKPALAKLDSVMAKALAKDAKDRFDTCHDFAVALAEANKGDESAAPVTAAPPPVITPPVQTAPPTTPLKAQTLPAPPTPPTPLSPSNPQAPTASQPPVFTSSWAGHDDPSGRQPVAVPAPAPPPPPPPSNFGPPPPAYSPPPRKSGGDRRKLIIAAAAIGAVVLLVGGITLAVTSGGDNDSAGAAATTSETASETPVTTTPKKPGEHAYTIADYIRDNKISETPVHRGDPNTPELTMPTPPGWADAGTRTPAWAYSAIVNDPASPTDPPSVISLISKLDGNVDPEKLLEFAPNELQNLTEWEPIGGVTRSNLSGFPSVQLGGSYLKDGKRRAITQKTVVVDIPSGIYVLQINADSLYRDFGALVDVNKAIDKEATIKP	failed
